According to patent WO2023190852A1:

These substances were tested against RBD derived from the Omicron strain (BA.3 strain) (SARS-CoV-2).
AZD8895 (antibody) gave a binding inhibition rate (%) of less than 80%.
LY_CoV16 (antibody) gave a binding inhibition rate (%) of less than 80%.
In the case of REGN10987 (antibody), the binding inhibition rate (%) is reported as less than 80%.
With LY_CoV555 (antibody) the binding inhibition rate (%) was less than 80%.
AZD1061 (antibody) showed a binding inhibition rate (%) of less than 80%.
In the case of REGN10933 (antibody), the binding inhibition rate (%) is reported as less than 80%.
Work on ADG2 (antibody) yielded a binding inhibition rate (%) of less than 80%.
With S309 (antibody) the binding inhibition rate (%) was less than 80%.
